Laboratory results as given in paper PMC9352680, “A comprehensive thermodynamic model for RNA binding by the Saccharomyces cerevisiae Pumilio protein PUF4”.

T1: PUF4 RNA-binding domain (Saccharomyces cerevisiae, UniProt P25339 537-888)
T1 sequence: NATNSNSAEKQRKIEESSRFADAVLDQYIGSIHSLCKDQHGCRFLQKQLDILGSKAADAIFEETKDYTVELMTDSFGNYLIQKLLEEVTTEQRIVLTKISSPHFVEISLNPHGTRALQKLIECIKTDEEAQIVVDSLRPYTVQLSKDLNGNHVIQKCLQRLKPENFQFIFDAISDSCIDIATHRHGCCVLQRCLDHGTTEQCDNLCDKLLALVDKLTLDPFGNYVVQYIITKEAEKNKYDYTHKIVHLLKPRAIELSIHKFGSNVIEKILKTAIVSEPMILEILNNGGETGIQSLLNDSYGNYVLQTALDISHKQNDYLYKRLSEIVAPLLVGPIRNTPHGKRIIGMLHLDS


Biological target: T1, PUF4 RNA-binding domain
Assay: Mg; RNA-MaP; 20 mM Na-HEPES pH 7.4, 30 mM KOAc, 0.75 mM MgCl2, 0.1% Tween-20, 5% glycerol, 0.1 mg/mL BSA, 2 mM DTT; 25 C; 0.0125-409.6 nM protein
Settings: tags: N-His6-TEV cleaved; C-SNAP kept, Cy3B-labelled; label: tethered on chip by stalled RNA polymerase

Row | Binder | Kd [nM]
1 | Ib_S2_P5E.1_K5.1_C5.1_H5.1_[A4T]_A5.1_F5.1_[T8A]_T5.1 (ssRNA) RNA: UUUGAUUAAUAUGAUAUCGUUCUUUCUUGUUUUAAUAUUCUUUCUCGAUAUCAUAUUAAUCUUU | 27.9
2 | Ic_S2_P5E.1_K5.1_C5.1_H5.1_A5.1_[A7G]_F5.1_[T8G]_T5.1 (ssRNA) RNA: UUUGAUUAAUAUGAUAUCGUUCUUUCUUGUAUUGGUAUUCUUUCUCGAUAUCAUAUUAAUCUUU | 62.8
3 | Ib_S2_P5E.1_K5.1_C5.1_H5.1_[A4T]_A5.1_F5.1_[T9C]_T5.1 (ssRNA) RNA: UUUGAUUAAUAUGAUAUCGUUCUUUCUUGUUUUAUCAUUCUUUCUCGAUAUCAUAUUAAUCUUU | 1480
4 | Ib_S2_P5E.1_K5.1_C5.1_H5.1_A5.1_[T5C]_F5.1_[T8C]_T5.1 (ssRNA) RNA: UUUGAUUAAUAUGAUAUCGUUCUUUCUUGUACUACUAUUCUUUCUCGAUAUCAUAUUAAUCUUU | 2.86
5 | Ib_S2_P5E.1_K5.1_C5.1_H5.1_A5.1_[T5A]_F5.1_[T8C]_T5.1 (ssRNA) RNA: UUUGAUUAAUAUGAUAUCGUUCUUUCUUGUAAUACUAUUCUUUCUCGAUAUCAUAUUAAUCUUU | 7.72
6 | Ib_S2_P5E.1_K5.1_C5.1_H5.1_[G2A]_A5.1_F5.1_[T9C]_T5.1 (ssRNA) RNA: UUUGAUUAAUAUGAUAUCGUUCUUUCUUAUAUUAUCAUUCUUUCUCGAUAUCAUAUUAAUCUUU | 429
7 | Ib_S2_P5E.1_K5.1_C5.1_H5.1_[G2T]_A5.1_F5.1_[A10C]_T5.1 (ssRNA) RNA: UUUGAUUAAUAUGAUAUCGUUCUUUCUUUUAUUAUUCUUCUUUCUCGAUAUCAUAUUAAUCUUU | > 2300
8 | Ib_S2_P5E.1_K5.1_C5.1_H5.1_A5.1_[A7G]_F5.1_[T9A]_T5.1 (ssRNA) RNA: UUUGAUUAAUAUGAUAUCGUUCUUUCUUGUAUUGUAAUUCUUUCUCGAUAUCAUAUUAAUCUUU | 10.6
9 | Ib_S2_P5E.1_K5.1_C5.1_H5.1_[T1C]_A5.1_F5.1_[A10G]_T5.1 (ssRNA) RNA: UUUGAUUAAUAUGAUAUCGUUCUUUCUCGUAUUAUUGUUCUUUCUCGAUAUCAUAUUAAUCUUU | 1750
10 | Ib_S2_P5E.1_K5.1_C5.1_H5.1_[A4C]_A5.1_F5.1_[A10T]_T5.1 (ssRNA) RNA: UUUGAUUAAUAUGAUAUCGUUCUUUCUUGUCUUAUUUUUCUUUCUCGAUAUCAUAUUAAUCUUU | 180
11 | Ib_S2_P5E.1_K5.1_C5.1_H5.1_[T3C]_A5.1_F5.1_[A10T]_T5.1 (ssRNA) RNA: UUUGAUUAAUAUGAUAUCGUUCUUUCUUGCAUUAUUUUUCUUUCUCGAUAUCAUAUUAAUCUUU | 2020
12 | Ib_S2_P5E.1_K5.1_C5.1_H5.1_[A4G]_A5.1_F5.1_[A10C]_T5.1 (ssRNA) RNA: UUUGAUUAAUAUGAUAUCGUUCUUUCUUGUGUUAUUCUUCUUUCUCGAUAUCAUAUUAAUCUUU | 106
13 | Ib_S2_P5E.1_K5.1_C5.1_H5.1_[G2A]_A5.1_F5.1_[A10T]_T5.1 (ssRNA) RNA: UUUGAUUAAUAUGAUAUCGUUCUUUCUUAUAUUAUUUUUCUUUCUCGAUAUCAUAUUAAUCUUU | 137
14 | Ic_S2_P5E.1_K5.1_C5.1_H5.1_A5.1_[A7C]_F5.1_[T9A]_T5.1 (ssRNA) RNA: UUUGAUUAAUAUGAUAUCGUUCUUUCUUGUAUUCUAAUUCUUUCUCGAUAUCAUAUUAAUCUUU | 2.31
15 | Ib_S2_P5E.1_K5.1_C5.1_H5.1_[T1A]_A5.1_F5.1_[A10T]_T5.1 (ssRNA) RNA: UUUGAUUAAUAUGAUAUCGUUCUUUCUAGUAUUAUUUUUCUUUCUCGAUAUCAUAUUAAUCUUU | > 2300
16 | Ib_S2_P5E.1_K5.1_C5.1_H5.1_[A4C]_A5.1_F5.1_[A10C]_T5.1 (ssRNA) RNA: UUUGAUUAAUAUGAUAUCGUUCUUUCUUGUCUUAUUCUUCUUUCUCGAUAUCAUAUUAAUCUUU | 572
17 | Ib_S2_P5E.1_K5.1_C5.1_H5.1_A5.1_[T5G]_F5.1_[T8A]_T5.1 (ssRNA) RNA: UUUGAUUAAUAUGAUAUCGUUCUUUCUUGUAGUAAUAUUCUUUCUCGAUAUCAUAUUAAUCUUU | 31.4
18 | Ib_S2_P5E.1_K5.1_C5.1_H5.1_A5.1_[T5C]_F5.1_[T8A]_T5.1 (ssRNA) RNA: UUUGAUUAAUAUGAUAUCGUUCUUUCUUGUACUAAUAUUCUUUCUCGAUAUCAUAUUAAUCUUU | 4.42
19 | Ia_S2_P5E.1_K5.1_C5.1_H5.1_A5.1_F5.1_[T8A]_T5.1 (ssRNA) RNA: UUUGAUUAAUAUGAUAUCGUUCUUUCUUGUAUUAAUAUUCUUUCUCGAUAUCAUAUUAAUCUUU | 6.54
20 | Ib_S2_P5E.1_K5.1_C5.1_H5.1_A5.1_[T6A]_F5.1_[T9A]_T5.1 (ssRNA) RNA: UUUGAUUAAUAUGAUAUCGUUCUUUCUUGUAUAAUAAUUCUUUCUCGAUAUCAUAUUAAUCUUU | 1.12
21 | Ia_S2_P5E.1_K5.1_C5.1_H5.1_A5.1_F5.1_[T8G]_T5.1 (ssRNA) RNA: UUUGAUUAAUAUGAUAUCGUUCUUUCUUGUAUUAGUAUUCUUUCUCGAUAUCAUAUUAAUCUUU | 26.8
22 | Ib_S2_P5E.1_K5.1_C5.1_H5.1_[T1A]_A5.1_F5.1_[T9C]_T5.1 (ssRNA) RNA: UUUGAUUAAUAUGAUAUCGUUCUUUCUAGUAUUAUCAUUCUUUCUCGAUAUCAUAUUAAUCUUU | > 2300
23 | Ib_S2_P5E.1_K5.1_C5.1_H5.1_A5.1_[T5G]_F5.1_[T8C]_T5.1 (ssRNA) RNA: UUUGAUUAAUAUGAUAUCGUUCUUUCUUGUAGUACUAUUCUUUCUCGAUAUCAUAUUAAUCUUU | 12.9

Row | Binder | Kd [nM]
24 | Ic_S2_P5E.1_K5.1_C5.1_H5.1_A5.1_[T6C]_F5.1_[T9A]_T5.1 (ssRNA) RNA: UUUGAUUAAUAUGAUAUCGUUCUUUCUUGUAUCAUAAUUCUUUCUCGAUAUCAUAUUAAUCUUU | 0.834
25 | Ib_S2_P5E.1_K5.1_C5.1_H5.1_A5.1_[T5G]_F5.1_[T9A]_T5.1 (ssRNA) RNA: UUUGAUUAAUAUGAUAUCGUUCUUUCUUGUAGUAUAAUUCUUUCUCGAUAUCAUAUUAAUCUUU | 5.43
26 | Ib_S2_P5E.1_K5.1_C5.1_H5.1_A5.1_[T6A]_F5.1_[T8C]_T5.1 (ssRNA) RNA: UUUGAUUAAUAUGAUAUCGUUCUUUCUUGUAUAACUAUUCUUUCUCGAUAUCAUAUUAAUCUUU | 5.31
27 | Ib_S2_P5E.1_K5.1_C5.1_H5.1_A5.1_[T5G]_F5.1_[T9C]_T5.1 (ssRNA) RNA: UUUGAUUAAUAUGAUAUCGUUCUUUCUUGUAGUAUCAUUCUUUCUCGAUAUCAUAUUAAUCUUU | 104
28 | Ib_S2_P5E.1_K5.1_C5.1_H5.1_A5.1_[T5A]_F5.1_[T9A]_T5.1 (ssRNA) RNA: UUUGAUUAAUAUGAUAUCGUUCUUUCUUGUAAUAUAAUUCUUUCUCGAUAUCAUAUUAAUCUUU | 2.52
29 | Ib_S2_P5E.1_K5.1_C5.1_H5.1_A5.1_[T6A]_F5.1_[T8A]_T5.1 (ssRNA) RNA: UUUGAUUAAUAUGAUAUCGUUCUUUCUUGUAUAAAUAUUCUUUCUCGAUAUCAUAUUAAUCUUU | 5.15
30 | Ib_S2_P5E.1_K5.1_C5.1_H5.1_A5.1_[T6C]_F5.1_[T8C]_T5.1 (ssRNA) RNA: UUUGAUUAAUAUGAUAUCGUUCUUUCUUGUAUCACUAUUCUUUCUCGAUAUCAUAUUAAUCUUU | 3.8
31 | Ia_S2_P5E.1_K5.1_C5.1_H5.1_A5.1_F5.1_[T8C]_T5.1 (ssRNA) RNA: UUUGAUUAAUAUGAUAUCGUUCUUUCUUGUAUUACUAUUCUUUCUCGAUAUCAUAUUAAUCUUU | 2.99
32 | Ib_S2_P5E.1_K5.1_C5.1_H5.1_[G2C]_A5.1_F5.1_[A10T]_T5.1 (ssRNA) RNA: UUUGAUUAAUAUGAUAUCGUUCUUUCUUCUAUUAUUUUUCUUUCUCGAUAUCAUAUUAAUCUUU | 1700
33 | Ib_S2_P5E.1_K5.1_C5.1_H5.1_[T1A]_A5.1_F5.1_[A10C]_T5.1 (ssRNA) RNA: UUUGAUUAAUAUGAUAUCGUUCUUUCUAGUAUUAUUCUUCUUUCUCGAUAUCAUAUUAAUCUUU | > 2300
34 | Ib_S2_P5E.1_K5.1_C5.1_H5.1_[T1C]_A5.1_F5.1_[A10C]_T5.1 (ssRNA) RNA: UUUGAUUAAUAUGAUAUCGUUCUUUCUCGUAUUAUUCUUCUUUCUCGAUAUCAUAUUAAUCUUU | 2010
35 | Ib_S2_P5E.1_K5.1_C5.1_H5.1_[T3C]_A5.1_F5.1_[T9A]_T5.1 (ssRNA) RNA: UUUGAUUAAUAUGAUAUCGUUCUUUCUUGCAUUAUAAUUCUUUCUCGAUAUCAUAUUAAUCUUU | 608
36 | Ib_S2_P5E.1_K5.1_C5.1_H5.1_[G2A]_A5.1_F5.1_[A10C]_T5.1 (ssRNA) RNA: UUUGAUUAAUAUGAUAUCGUUCUUUCUUAUAUUAUUCUUCUUUCUCGAUAUCAUAUUAAUCUUU | 294
37 | Ib_S2_P5E.1_K5.1_C5.1_H5.1_[G2C]_A5.1_F5.1_[A10G]_T5.1 (ssRNA) RNA: UUUGAUUAAUAUGAUAUCGUUCUUUCUUCUAUUAUUGUUCUUUCUCGAUAUCAUAUUAAUCUUU | > 2300
38 | Ib_S2_P5E.1_K5.1_C5.1_H5.1_A5.1_[T5C]_F5.1_[T9C]_T5.1 (ssRNA) RNA: UUUGAUUAAUAUGAUAUCGUUCUUUCUUGUACUAUCAUUCUUUCUCGAUAUCAUAUUAAUCUUU | 16.9
39 | Ib_S2_P5E.1_K5.1_C5.1_H5.1_A5.1_[A7C]_F5.1_[T8A]_T5.1 (ssRNA) RNA: UUUGAUUAAUAUGAUAUCGUUCUUUCUUGUAUUCAUAUUCUUUCUCGAUAUCAUAUUAAUCUUU | 8.24
40 | Ic_S2_P5E.1_K5.1_C5.1_H5.1_A5.1_[T6A]_F5.1_[T9C]_T5.1 (ssRNA) RNA: UUUGAUUAAUAUGAUAUCGUUCUUUCUUGUAUAAUCAUUCUUUCUCGAUAUCAUAUUAAUCUUU | 34
41 | Ib_S2_P5E.1_K5.1_C5.1_H5.1_[G2A]_A5.1_F5.1_[A10G]_T5.1 (ssRNA) RNA: UUUGAUUAAUAUGAUAUCGUUCUUUCUUAUAUUAUUGUUCUUUCUCGAUAUCAUAUUAAUCUUU | 420
42 | Ib_S2_P5E.1_K5.1_C5.1_H5.1_A5.1_[A7T]_F5.1_[T8C]_T5.1 (ssRNA) RNA: UUUGAUUAAUAUGAUAUCGUUCUUUCUUGUAUUUCUAUUCUUUCUCGAUAUCAUAUUAAUCUUU | 3.48
43 | Ib_S2_P5E.1_K5.1_C5.1_H5.1_A5.1_[A7T]_F5.1_[T8A]_T5.1 (ssRNA) RNA: UUUGAUUAAUAUGAUAUCGUUCUUUCUUGUAUUUAUAUUCUUUCUCGAUAUCAUAUUAAUCUUU | 3.83
44 | Ib_S2_P5E.1_K5.1_C5.1_H5.1_[G2C]_A5.1_F5.1_[T9A]_T5.1 (ssRNA) RNA: UUUGAUUAAUAUGAUAUCGUUCUUUCUUCUAUUAUAAUUCUUUCUCGAUAUCAUAUUAAUCUUU | 1690
45 | Ia_S2_P4E.1_K4.1_C4.1_H4.1_A4.1_[T7A]_F4.1_T4.1 (ssRNA) RNA: UUUGAUUAAUAUGAUAUCGUUCUUUCUUGUAUAAUAUUCUUUCUCGAUAUCAUAUUAAUCUUU | 0.749
